The target in assay [1] is T1, human ITGa3 on human-derived cell lines (human, UniProt P26006 33-1051).
T1 construct: whole, on cells; also called ITGa3 on H292 cells
T1 sequence (looked up): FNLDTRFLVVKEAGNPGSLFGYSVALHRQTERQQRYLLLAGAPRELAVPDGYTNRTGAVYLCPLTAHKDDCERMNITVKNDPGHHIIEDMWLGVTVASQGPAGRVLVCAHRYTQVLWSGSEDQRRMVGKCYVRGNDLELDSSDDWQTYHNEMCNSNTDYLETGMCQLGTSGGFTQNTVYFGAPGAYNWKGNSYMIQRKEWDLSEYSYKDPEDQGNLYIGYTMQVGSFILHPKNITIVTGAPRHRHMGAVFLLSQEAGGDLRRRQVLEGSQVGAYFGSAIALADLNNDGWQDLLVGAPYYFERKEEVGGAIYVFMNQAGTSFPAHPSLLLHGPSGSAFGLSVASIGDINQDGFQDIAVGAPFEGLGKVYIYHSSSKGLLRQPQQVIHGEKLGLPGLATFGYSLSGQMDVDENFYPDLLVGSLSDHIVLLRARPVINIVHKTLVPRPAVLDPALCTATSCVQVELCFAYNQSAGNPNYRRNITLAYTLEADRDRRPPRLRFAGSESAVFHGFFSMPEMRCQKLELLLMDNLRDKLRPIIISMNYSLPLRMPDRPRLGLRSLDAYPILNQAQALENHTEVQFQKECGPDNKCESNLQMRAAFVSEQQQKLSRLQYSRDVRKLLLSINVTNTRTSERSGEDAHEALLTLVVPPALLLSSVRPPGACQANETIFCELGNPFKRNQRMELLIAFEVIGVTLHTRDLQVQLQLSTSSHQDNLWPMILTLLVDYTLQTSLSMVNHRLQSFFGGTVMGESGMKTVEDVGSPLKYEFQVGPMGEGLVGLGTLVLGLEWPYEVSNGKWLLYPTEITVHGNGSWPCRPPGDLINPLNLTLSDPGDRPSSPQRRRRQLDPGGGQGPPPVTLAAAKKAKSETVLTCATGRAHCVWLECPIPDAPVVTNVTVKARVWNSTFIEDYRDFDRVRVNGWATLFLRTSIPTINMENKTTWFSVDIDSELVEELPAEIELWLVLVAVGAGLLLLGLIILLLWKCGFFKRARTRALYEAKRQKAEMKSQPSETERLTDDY
Put plainly: FACS on H292 cells; goat anti-human IgG Alexa Fluor 647 secondary; used for comparison. The protocol:
[…], the binding of activatable anti-ITGa3 antibodies of the present disclosure comprising the VH of SEQ ID NO: 7, a VL selected from the VL of SEQ ID NO: 11 and the VL of SEQ ID NO: 12, with a masking moiety selected from the 570 masking moiety (SEQ ID NO: 22) and the 574 masking moiety (SEQ ID NO: 26), and the CM1 substrate comprising the sequence […] (SEQ ID NO: 232) to the H292 cell line was evaluated using a cell-binding FACS assay. The VM2 chimera (VH of SEQ ID NO: 1 and VL of SEQ ID NO: 2) was used for comparison. Using a standard labeling protocol for FACS, cells were labeled with anti-ITGa3 antibody or anti-ITGa3 activatable antibody of the present disclosure at the indicated concentrations, and the bound antibody was detected with a goat anti-human IgG Alexa Fluor 647 secondary antibody.

For assay [2], the target named is T1, human ITGa3 on human-derived cell lines. Put plainly: FACS on FaDu cells; apparent Kd from binding curve. The protocol: (§1) In this study, the binding of the antibodies of the present disclosure to the indicated cell lines were performed using a standard FACS labelling method.
For assay [3] the target is unchanged. Put plainly: FACS on HT29 cells; apparent Kd from binding curve. The protocol:
as §1

Assay [4] has the same target. The experiment in a line: FACS on BxPC3 cells; apparent Kd from binding curve. The protocol:
as §1

Assay [5] shares this target. Put plainly: FACS on MDA MB231 cells; apparent Kd from binding curve. The protocol: as §1
The target is the same in assay [6]. Put plainly: FACS on FaDu cells; shift of the ActAb Kd against the ITGa3 Ab Kd. The protocol: as §1
For assay [7] the target is unchanged. Put plainly: FACS on HT29 cells; shift of the ActAb Kd against the ITGa3 Ab Kd. As for the experimental part:
as §1

The target is the same in assay [8]. The experiment in a line: FACS on BxPC3 cells; shift of the ActAb Kd against the ITGa3 Ab Kd. As for the experimental part:
as §1

Assay [9] has the same target. Put plainly: FACS on MDA MB 231 cells (FIG. 17B); apparent Kd from binding curve. The protocol:
In this study, the binding of the antibodies of the present disclosure to the indicated cell lines were performed using a standard FACS labelling method. Briefly, in FIG. 17A cells were labeled with the indicated antibodies of the present disclosure: anti-human ITGa3 antibody drug conjugate (anti-ITGa3 huVM2 Hc2/Lc1-spdb-DM4, “ITGa-DM4”) or an anti-human ITGa3 activatable antibody drug conjugate (anti-ITGA3 Hc2-570-2001-spdb-DM4, “ITGA3-570-2001-DM4”), where the anti-ITGa3 AADC was used with and without activation by a protease that recognized the substrate sequence. In FIG. 17B cells were labeled with the indicated antibodies of the present disclosure: anti-human ITGa3 antibody (anti-ITGa3 huVM2 Hc2T62G/Lc1 antibody, “ITGa3 Ab”) or an anti-human ITGa3 activatable antibody (anti-ITGA3 Hc2T62G-570-2001, “ITGA3-570-2001; anti-ITGA3 Hc2T62G-2331-3001, “ITGA3-2331-3001”) and their corresponding AADCs conjugated to vc-MMAD at the indicated concentrations and subsequently detected with an Alexa Fluor 647 labeled goat anti-human IgG secondary antibody.

Assay [10] shares this target. The experiment in a line: FACS on MDA MB231 cells; shift of the ActAb Kd against the ITGa3 Ab Kd. The protocol:
as §1

For assay [11], the target named is T2, mouse ITGa3 on mouse-derived Renca renal carcinoma cells (mouse, UniProt Q62470 33-1053).
T2 construct: whole, on cells
T2 sequence (looked up): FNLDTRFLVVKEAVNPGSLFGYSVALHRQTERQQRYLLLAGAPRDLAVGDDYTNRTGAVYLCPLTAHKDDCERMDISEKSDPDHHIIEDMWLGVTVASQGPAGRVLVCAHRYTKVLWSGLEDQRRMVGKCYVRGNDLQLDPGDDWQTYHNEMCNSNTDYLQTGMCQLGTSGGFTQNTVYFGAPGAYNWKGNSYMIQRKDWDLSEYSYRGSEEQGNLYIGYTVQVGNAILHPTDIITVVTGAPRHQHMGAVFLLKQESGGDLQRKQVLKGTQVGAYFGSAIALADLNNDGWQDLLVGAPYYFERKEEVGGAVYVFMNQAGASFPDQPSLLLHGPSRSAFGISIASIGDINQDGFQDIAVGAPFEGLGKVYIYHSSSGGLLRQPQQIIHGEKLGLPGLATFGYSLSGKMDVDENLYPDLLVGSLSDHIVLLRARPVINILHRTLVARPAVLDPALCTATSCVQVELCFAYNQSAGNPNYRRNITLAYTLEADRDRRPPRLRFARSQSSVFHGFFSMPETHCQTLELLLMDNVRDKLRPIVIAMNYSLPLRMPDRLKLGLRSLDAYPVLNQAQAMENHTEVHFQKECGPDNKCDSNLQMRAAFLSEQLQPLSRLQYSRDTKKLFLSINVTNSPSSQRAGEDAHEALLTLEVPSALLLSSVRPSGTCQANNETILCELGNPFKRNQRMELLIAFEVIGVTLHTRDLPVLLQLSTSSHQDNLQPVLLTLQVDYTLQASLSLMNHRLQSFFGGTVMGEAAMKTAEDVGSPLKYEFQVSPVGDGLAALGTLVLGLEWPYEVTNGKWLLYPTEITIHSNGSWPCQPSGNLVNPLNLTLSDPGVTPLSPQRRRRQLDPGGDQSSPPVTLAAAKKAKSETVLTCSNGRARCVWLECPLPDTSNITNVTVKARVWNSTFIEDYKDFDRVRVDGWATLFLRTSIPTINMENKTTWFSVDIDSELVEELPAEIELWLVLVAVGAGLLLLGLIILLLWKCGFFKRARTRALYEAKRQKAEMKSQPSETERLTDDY
The experiment in a line: FACS on Renca cells; goat anti-human IgG Alexa Fluor 647 secondary.

B1: VM2 chimera (antibody, V domains shown)
VH: EVQLQESGAELVKPGTSVRLSCKASGYTFTEYIIHWVKQRSGQGLEWIGWFYPESGSVKYNETFKGRATLTADKSSSTVYMELSRLTSEDSAVYFCARHEERDYYGYYAMDYWGQGTSVTVSS
VL: DIVMTQTPTTLAASPGEKIIITCSASSSISSNYLHWYQQKPGFSPKLLIYRTSNLASGVPARFSGSGSGTSYSLTIGTMEAEDVATYYCQQGSSIPRFTSGSGTKLEIK
notes: Chimera of the mouse VM2 variable domains; also called VM2 chimera anti-ITGa3 antibody
For B1, in assay [1], the binding result is “binds”.

B2: anti-ITGA3 Hc2T62G-570-2001 (antibody)
heavy: not shown
light: QGQSGQGECKTRQDFEMHDCVYGGGSSGGSISSGLLSGRSDNHGGGSDIQMTQSPSSLSASVGDRVTITCSASSSISSNYLHWYQQKPGKVPKLLIYRTSNLASGVPSRFSGSGSGTDYTLTISSLQPEDVATYYCQQGSSIPRFTSGGGTKVEIKRTVAAPSVFIFPPSDEQLKSGTASVVCLLNNFYPREAKVQWKVDNALQSGNSQESVTEQDSKDSTYSLSSTLTLSKADYEKHKVYACEVTHQGLSSPVTKSFNRGEC
notes: also called ITGa3-ActAb; ITGa3 ActAb
Take B2: the Kd in assay [2] stood at 4.58 nM; in assay [3], 6.03 nM; in assay [4], 7.39 nM; in [5], 7.42 nM; in assay [9], 18 nM. Further, the “Apparent Masking Efficiency” value in assay [6] stood at 14 fold; in assay [7], 25 fold; in assay [8], 10 fold; in [10], 8 fold.

B3: anti-ITGA3 Hc2T62G-570-2001 conjugated to vc-MMAD (antibody, human IgG1, kappa)
heavy: not shown
light: QGQSGQGECKTRQDFEMHDCVYGGGSSGGSISSGLLSGRSDNHGGGSDIQMTQSPSSLSASVGDRVTITCSASSSISSNYLHWYQQKPGKVPKLLIYRTSNLASGVPSRFSGSGSGTDYTLTISSLQPEDVATYYCQQGSSIPRFTSGGGTKVEIKRTVAAPSVFIFPPSDEQLKSGTASVVCLLNNFYPREAKVQWKVDNALQSGNSQESVTEQDSKDSTYSLSSTLTLSKADYEKHKVYACEVTHQGLSSPVTKSFNRGEC
modifications: vc-MMAD conjugated to the antibody; chain and residues of attachment not stated
notes: also called ITGa3 570-2001-MMAD; ITGa3-570-2001-MMAD
As to B3, the Kd in assay [9] was 17.5 nM.

B4: anti-ITGa3 huVM2 Hc2T62G/Lc1 antibody (antibody, human IgG1, kappa)
heavy: not shown
light: DIQMTQSPSSLSASVGDRVTITCSASSSISSNYLHWYQQKPGKVPKLLIYRTSNLASGVPSRFSGSGSGTDYTLTISSLQPEDVATYYCQQGSSIPRFTSGGGTKVEIKRTVAAPSVFIFPPSDEQLKSGTASVVCLLNNFYPREAKVQWKVDNALQSGNSQESVTEQDSKDSTYSLSSTLTLSKADYEKHKVYACEVTHQGLSSPVTKSFNRGEC
notes: also called ITGa3 Ab; ITGA3-Ab
B4: the Kd turned out to be 0.32 nM in assay [2]; 0.24 nM in [3]; 0.77 nM in assay [4]; 0.91 nM in assay [5]; 0.906 nM in assay [9]. Also, the binding result in assay [11] was “no binding”.

B5: anti-ITGa3 huVM2 Hc2T62G/Lc1 antibody conjugated to vc-MMAD (antibody, human IgG1, kappa)
heavy: not shown
light: DIQMTQSPSSLSASVGDRVTITCSASSSISSNYLHWYQQKPGKVPKLLIYRTSNLASGVPSRFSGSGSGTDYTLTISSLQPEDVATYYCQQGSSIPRFTSGGGTKVEIKRTVAAPSVFIFPPSDEQLKSGTASVVCLLNNFYPREAKVQWKVDNALQSGNSQESVTEQDSKDSTYSLSSTLTLSKADYEKHKVYACEVTHQGLSSPVTKSFNRGEC
modifications: vc-MMAD conjugated to the antibody; chain and residues of attachment not stated
notes: Antibody drug conjugate of m29; also called ITGa3 Ab-MMAD; huVM2 Hc2T62G-MMAD ADC
For B5, the Kd in assay [9] was 1.08 nM.

The record behind these values is patent US20190309072A1 (CYTOMX THERAPEUTICS, published 2019).
